In data set [1] the target is T1, Nab3-RRM(419) (Saccharomyces cerevisiae, UniProt P38996 329-419).
T1 sequence: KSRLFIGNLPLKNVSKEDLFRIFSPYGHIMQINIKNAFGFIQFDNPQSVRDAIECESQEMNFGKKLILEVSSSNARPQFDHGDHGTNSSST
The experiment in a line: fluorescence anisotropy. For orientation: In fluorescence polarisation assays a small probe gives low polarisation when free and higher when bound to something large.

For data set [2], the target named is T1, Nab3-RRM(419). The experiment in a line: fluorescence anisotropy. This is another data set of the same source.

Where two headings read alike, the source gives them in different places.

Take UUCUUAUUCUUA (ssRNA) [FAM-wtsnR47]: the binding result with Nab3-RRM(419) [1] was “binds”.
Turning to UUCUUAUUUUUA (ssRNA) [FAM-snR47one], in the data set with Nab3-RRM(419) [2], the binding result is recorded as “binds”.

Source of the values: publication PMC3017603.
